Data taken from WO2014192202A1 (dated 2014).

Biological target: T1, human cardiac muscle-derived troponin I (human, UniProt P19429 2-210)
T1 construct: Immobilised on a CM5 chip at about 500 RU; also called troponin I derived from human myocardium; human myocardial troponin I
Test: SPR (Biacore T100), troponin I immobilised on CM5 chip, as in Example 1

T1 sequence (P19429 2-210 limits assumed): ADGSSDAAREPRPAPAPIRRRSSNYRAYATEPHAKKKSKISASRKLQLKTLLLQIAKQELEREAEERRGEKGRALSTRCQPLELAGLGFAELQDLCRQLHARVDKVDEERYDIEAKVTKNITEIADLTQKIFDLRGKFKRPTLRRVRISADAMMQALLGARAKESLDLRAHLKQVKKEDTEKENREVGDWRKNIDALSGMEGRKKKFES

B1: wild type scFv antibody fragment (SEQ ID NO: 62) (scFv)
scFv: DIVMTQSPSSLAMSVGQKVTMSCKSSQSLLNSSNQKNYLAWYQQKPGQSPKLLVYFASTRESGVPDRFIGSGSGTDFTLTISSVQAEDLADYFCQQHYSTPLTFGAGTKLELKRGGGGSGGGGSGGGGSEVKLEESGGGLVKPGGTLKLSCAASGFTFSSYAMSWVRQTPEKRLDWVATISSGGSYIFYPDSVKGRFTISRDNARNTLYLQMNSLRSEDTAMYYCARHHNPDKSGFAYWGQGTLVTVSAAAALEHHHHHH
notes: also called wild scFv antibody fragment
  binding result: binds
